T1: human FcγRIIaH extracellular domain, His-tagged (human, UniProt P12318 34-217)
T1 construct: also called human FcγRIIa (type H); FcgRIIaH; not shown: C-terminal His-tag
T1 sequence: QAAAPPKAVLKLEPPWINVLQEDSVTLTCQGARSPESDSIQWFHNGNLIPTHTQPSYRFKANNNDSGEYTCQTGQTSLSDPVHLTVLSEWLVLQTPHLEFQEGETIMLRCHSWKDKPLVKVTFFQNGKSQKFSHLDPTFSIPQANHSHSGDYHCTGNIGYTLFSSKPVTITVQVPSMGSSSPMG

T2: human FcγRIIb extracellular domain, His-tagged (human, UniProt P31994 43-217)
T2 construct: also called FcgRIIb (human); not shown: C-terminal His-tag
T2 sequence: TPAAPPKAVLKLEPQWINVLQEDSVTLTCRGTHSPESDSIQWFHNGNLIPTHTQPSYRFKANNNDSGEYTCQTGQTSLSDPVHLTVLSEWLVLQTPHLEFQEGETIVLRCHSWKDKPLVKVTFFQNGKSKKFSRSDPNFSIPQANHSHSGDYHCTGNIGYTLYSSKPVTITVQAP

T3: cynomolgus monkey FcγRIIa2 extracellular domain, His-tagged (cynomolgus monkey)
T3 construct: also called cyno FcγRIIa2; cynoFcgRIIa2; not shown: C-terminal His-tag
T3 chain: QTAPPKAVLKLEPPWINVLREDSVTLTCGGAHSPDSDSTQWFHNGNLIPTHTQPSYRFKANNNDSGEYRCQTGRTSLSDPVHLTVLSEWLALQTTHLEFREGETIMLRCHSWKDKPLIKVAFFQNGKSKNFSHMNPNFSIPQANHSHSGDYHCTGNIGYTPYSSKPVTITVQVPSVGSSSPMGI

T4: cynomolgus monkey FcγRIIb extracellular domain, His-tagged (cynomolgus monkey)
T4 construct: also called cyno FcγRIIb; cynoFcγRIIb; not shown: C-terminal His-tag
T4 chain: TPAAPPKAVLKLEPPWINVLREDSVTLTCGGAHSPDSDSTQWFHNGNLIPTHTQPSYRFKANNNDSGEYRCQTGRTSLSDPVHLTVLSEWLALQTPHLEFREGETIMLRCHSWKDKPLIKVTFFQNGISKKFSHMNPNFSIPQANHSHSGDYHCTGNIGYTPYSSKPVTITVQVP

T5: cynomolgus monkey FcγRIIIaS extracellular domain, His-tagged (cynomolgus monkey, UniProt Q8SPW2 21-206 at identity 1.00))
T5 construct: also called cyno FcγRIIIaS; cynoFcγRIIIaS; not shown: C-terminal His-tag
T5 chain: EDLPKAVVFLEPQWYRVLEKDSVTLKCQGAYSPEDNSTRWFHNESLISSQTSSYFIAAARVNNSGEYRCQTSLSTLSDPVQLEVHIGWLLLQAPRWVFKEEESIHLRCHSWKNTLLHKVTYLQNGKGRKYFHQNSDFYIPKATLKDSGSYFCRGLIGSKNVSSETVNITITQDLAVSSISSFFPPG

T6: cynomolgus monkey FcγRIIa1 extracellular domain, His-tagged (cynomolgus monkey)
T6 construct: also called cyno FcγRIIa1; cynoFcgRIIa1; not shown: C-terminal His-tag
T6 chain: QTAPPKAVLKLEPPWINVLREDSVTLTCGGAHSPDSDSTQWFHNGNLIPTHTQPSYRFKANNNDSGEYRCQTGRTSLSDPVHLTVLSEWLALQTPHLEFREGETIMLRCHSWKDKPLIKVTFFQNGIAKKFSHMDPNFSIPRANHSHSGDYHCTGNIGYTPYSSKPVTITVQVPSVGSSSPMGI

T7: cynomolgus monkey FcγRIIa3 extracellular domain, His-tagged (cynomolgus monkey)
T7 construct: also called cyno FcγRIIa3; cynoFcgRIIa3; not shown: C-terminal His-tag
T7 chain: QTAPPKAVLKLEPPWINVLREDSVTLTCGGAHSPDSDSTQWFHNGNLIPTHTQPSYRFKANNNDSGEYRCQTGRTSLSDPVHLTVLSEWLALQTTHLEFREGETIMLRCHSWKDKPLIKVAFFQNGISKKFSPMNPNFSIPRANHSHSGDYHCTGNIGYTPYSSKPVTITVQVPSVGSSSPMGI

T8: human FcγRIIaR extracellular domain, His-tagged (human, UniProt P12318 34-217)
T8 construct: also called human FcγRIIa (type R); FcgRIIaR; not shown: C-terminal His-tag
T8 chain: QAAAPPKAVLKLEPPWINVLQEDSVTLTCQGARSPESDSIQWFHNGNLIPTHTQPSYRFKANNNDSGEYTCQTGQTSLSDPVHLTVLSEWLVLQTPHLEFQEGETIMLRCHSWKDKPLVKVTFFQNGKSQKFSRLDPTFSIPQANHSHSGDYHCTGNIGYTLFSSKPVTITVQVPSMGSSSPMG


What was measured:
Assay in all cases: SPR (BIACORE), captured antibody, FcgR as analyte
[1] = target: T9, human FcγRIIIaV extracellular domain, His-tagged (human, UniProt P08637 17-208)
T9 construct: also called FcgRIIIaV; not shown: C-terminal His-tag
T9 sequence (P08637 17-208 F176V): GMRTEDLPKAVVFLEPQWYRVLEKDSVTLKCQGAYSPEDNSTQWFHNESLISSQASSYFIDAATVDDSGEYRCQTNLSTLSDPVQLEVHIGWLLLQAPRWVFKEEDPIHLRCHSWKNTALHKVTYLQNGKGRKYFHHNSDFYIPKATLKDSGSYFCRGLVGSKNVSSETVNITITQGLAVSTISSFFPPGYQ
Protocol: (§1) The kinetic analysis of interactions between these antibodies and FcγR was carried out using BIACORE® T200 or BIACORE® 4000 (GE Healthcare). HBS-EP+ (GE Healthcare) was used as the running buffer, and the measurement temperature was set to 25° C. A chip produced by immobilizing Protein A. Protein A/G or mouse anti-human IgG kappa light chain (BD Biosciences) onto a Series S Sensor Chip CM4 or CM5 (GE Healthcare) by the amine-coupling method was used. […] After the measurement, the antibody captured on the chip was washed off by allowing reaction with 10 mM glycine-HCl, pH1.5 and 25 mM NaOH so that the chip was regenerated and used repeatedly. The sensorgrams obtained as measurement results were analyzed by the 1:1 Langmuir binding model using the BIACORE® Evaluation Software to calculate the binding rate constant ka (L/mol/s) and dissociation rate constant kd (l/s), and the dissociation constant KD (mol/L) was calculated from these values. […] Regarding such interactions, KD values were calculated using the following 1:1 binding model described in BIACORE® T100 Software Handbook BR1006-48 Edition AE.

[2] = target: T1, human FcγRIIaH extracellular domain, …
Protocol: as §1

[3] = target: T2, human FcγRIIb extracellular domain, …
Protocol: as §1

[4] = target: T3, cynomolgus monkey FcγRIIa2 …
Protocol: as §1

[5] = target: T4, cynomolgus monkey FcγRIIb extracellular …
Protocol: as §1

[6] = target: T5, cynomolgus monkey FcγRIIIaS …
Protocol: as §1

[7] = target: T6, cynomolgus monkey FcγRIIa1 …
Protocol: as §1

[8] = target: T7, cynomolgus monkey FcγRIIa3 …
Protocol: as §1

[9] = target: T8, human FcγRIIaR extracellular domain, …
Protocol: as §1

Binder | Kd [1] | Kd [2] | Kd [3] | Kd [4] | Kd [5] | Kd [6] | Kd [7] | Kd [8] | Kd [9]
M103205H795-MY452/M103202L889-SK1 (antibody, human IgG1, kappa, copies: 2 + 2) heavy: QVTLKESGPVLVKPTETLTLTCTVSGIDLSHDDISWVRQAPGKGLEWVGIISYAGSTYYASWAKGRLTISKDTSKNQVVLTMTNMDPVDTATYYCARGVPAYSHGGDLWGQGTLVTVSSASTKGPSVFPLAPSSKSTSGGTAALGCLVKDYFPEPVTVSWNSGALTSGVHTFPAVLQSSGLYSLSSVVTVPSSSLGTQTYICNVNHKPSNTKVDKKVEPKSCDKTHTCPPCPAQELLTGPSVFLFPPKPKDTLMISRTPEVTCVVVDVSDEDPEVKFNWYVDGVEVHNAKTKPREEQYNSTYRVVSVLTVLHQDWLNGKEYKCKVSNKALPKPIEKTISKAKGQPREPQVYTLPPSREEMTKNQVSLTCLVKGFYPSDIAVEWESNGQPENNYKTTPPVLDSDGSFFLYSKLTVDKSRWQQGNVFSCSVMHEALHNHYTQKSLSLSP light: DIVMTQSPATLSLSPGERATLSCTSSQSVYHANWLSWFQQKPGQPPKLLIYWASTLAYGVPSRFSGSGSGTDFTLTISSLQPEDAATYYCAGGYGGGRYAFGQGTKVEIKRTVAAPSVFIFPPSDEQLKSGTASVVCLLNNFYPREAKVQWKVDNALQSGNSQESVTEQDSKDSTYSLSSTLTLSKADYEKHKVYACEVTHQGLSSPVTKSFNRGEC | 6100 nM | 360 nM | 2900 nM | 3100 nM | 920 nM | 2800 nM | 3400 nM | 6500 nM | 620 nM
M103205H795-MY451/M103202L889-SK1 (antibody, human IgG1, kappa, copies: 2 + 2) heavy: QVTLKESGPVLVKPTETLTLTCTVSGIDLSHDDISWVRQAPGKGLEWVGIISYAGSTYYASWAKGRLTISKDTSKNQVVLTMTNMDPVDTATYYCARGVPAYSHGGDLWGQGTLVTVSSASTKGPSVFPLAPSSKSTSGGTAALGCLVKDYFPEPVTVSWNSGALTSGVHTFPAVLQSSGLYSLSSVVTVPSSSLGTQTYICNVNHKPSNTKVDKKVEPKSCDKTHTCPPCPANELLTGPSVFLFPPKPKDTLMISRTPEVTCVVVDVSDEDPEVKFNWYVDGVEVHNAKTKPREEQYNSTYRVVSVLTVLHQDWLNGKEYKCKVSNKALPKPIEKTISKAKGQPREPQVYTLPPSREEMTKNQVSLTCLVKGFYPSDIAVEWESNGQPENNYKTTPPVLDSDGSFFLYSKLTVDKSRWQQGNVFSCSVMHEALHNHYTQKSLSLSP light: DIVMTQSPATLSLSPGERATLSCTSSQSVYHANWLSWFQQKPGQPPKLLIYWASTLAYGVPSRFSGSGSGTDFTLTISSLQPEDAATYYCAGGYGGGRYAFGQGTKVEIKRTVAAPSVFIFPPSDEQLKSGTASVVCLLNNFYPREAKVQWKVDNALQSGNSQESVTEQDSKDSTYSLSSTLTLSKADYEKHKVYACEVTHQGLSSPVTKSFNRGEC | 7100 nM | 410 nM | 3000 nM | 4200 nM | 1000 nM | 2700 nM | 3600 nM | 6700 nM | 840 nM

Further binders by falling Kd [1], results first:

Kd [1] | Kd [2] | Kd [3] | Kd [4] | Kd [5] | Kd [6] | Kd [7] | Kd [8] | Kd [9] | Binder
4000 nM | 130 nM | 470 nM | 1100 nM | 280 nM | 1800 nM | 1300 nM | 2200 nM | 120 nM | M103205H795-MY450/M103202L889-SK1 (antibody, human IgG1, kappa, copies: 2 + 2) heavy: QVTLKESGPVLVKPTETLTLTCTVSGIDLSHDDISWVRQAPGKGLEWVGIISYAGSTYYASWAKGRLTISKDTSKNQVVLTMTNMDPVDTATYYCARGVPAYSHGGDLWGQGTLVTVSSASTKGPSVFPLAPSSKSTSGGTAALGCLVKDYFPEPVTVSWNSGALTSGVHTFPAVLQSSGLYSLSSVVTVPSSSLGTQTYICNVNHKPSNTKVDKKVEPKSCDKTHTCPPCPAMELLTGPSVFLFPPKPKDTLMISRTPEVTCVVVDVSDEDPEVKFNWYVDGVEVHNAKTKPREEQYNSTYRVVSVLTVLHQDWLNGKEYKCKVSNKALPKPIEKTISKAKGQPREPQVYTLPPSREEMTKNQVSLTCLVKGFYPSDIAVEWESNGQPENNYKTTPPVLDSDGSFFLYSKLTVDKSRWQQGNVFSCSVMHEALHNHYTQKSLSLSP light: DIVMTQSPATLSLSPGERATLSCTSSQSVYHANWLSWFQQKPGQPPKLLIYWASTLAYGVPSRFSGSGSGTDFTLTISSLQPEDAATYYCAGGYGGGRYAFGQGTKVEIKRTVAAPSVFIFPPSDEQLKSGTASVVCLLNNFYPREAKVQWKVDNALQSGNSQESVTEQDSKDSTYSLSSTLTLSKADYEKHKVYACEVTHQGLSSPVTKSFNRGEC
3700 nM | 93 nM | 290 nM | 940 nM | 230 nM | 1000 nM | 870 nM | 1500 nM | 74 nM | M103205H795-MY449/M103202L889-SK1 (antibody, human IgG1, kappa, copies: 2 + 2) heavy: QVTLKESGPVLVKPTETLTLTCTVSGIDLSHDDISWVRQAPGKGLEWVGIISYAGSTYYASWAKGRLTISKDTSKNQVVLTMTNMDPVDTATYYCARGVPAYSHGGDLWGQGTLVTVSSASTKGPSVFPLAPSSKSTSGGTAALGCLVKDYFPEPVTVSWNSGALTSGVHTFPAVLQSSGLYSLSSVVTVPSSSLGTQTYICNVNHKPSNTKVDKKVEPKSCDKTHTCPPCPALELLTGPSVFLFPPKPKDTLMISRTPEVTCVVVDVSDEDPEVKFNWYVDGVEVHNAKTKPREEQYNSTYRVVSVLTVLHQDWLNGKEYKCKVSNKALPKPIEKTISKAKGQPREPQVYTLPPSREEMTKNQVSLTCLVKGFYPSDIAVEWESNGQPENNYKTTPPVLDSDGSFFLYSKLTVDKSRWQQGNVFSCSVMHEALHNHYTQKSLSLSP light: DIVMTQSPATLSLSPGERATLSCTSSQSVYHANWLSWFQQKPGQPPKLLIYWASTLAYGVPSRFSGSGSGTDFTLTISSLQPEDAATYYCAGGYGGGRYAFGQGTKVEIKRTVAAPSVFIFPPSDEQLKSGTASVVCLLNNFYPREAKVQWKVDNALQSGNSQESVTEQDSKDSTYSLSSTLTLSKADYEKHKVYACEVTHQGLSSPVTKSFNRGEC
